# Measurements: doi:10.1101/2023.08.18.553786
# Key:
# [1] = target: CDTb, the cell-binding component of the C. difficile binary toxin (CDT), active wild type (Clostridioides difficile); assay: cryo-EM structure
# [2] = target: CDTb^D623A/D734A, active Ca^2+-binding mutant of CDTb (Clostridioides difficile); assay: cryo-EM structure
Substance,stoichiometry N [1],stoichiometry N [2]
"CDTb, the cell-binding component of the C. difficile binary toxin (CDT), active wild type (natural protein)",7,
"CDTb^D623A/D734A, active Ca^2+-binding mutant of CDTb (natural protein)",,7
